Results on 22 sequences are retold here after the DeepSol protein solubility set.

This data set in a line: soluble on expression in E. coli; label from the status in PepcDB or PDB records.
Consider “MVRVDQNLFNEVMYLLDELSQDITVPKNVRKVAQDSKAKLSQENESLDLRCATVLSMLDEMANDPNVPAHGRTDLYTIISKLEALS”, for which the “soluble on expression in E. coli” value is on record as “soluble”.

As to “MGSDKIHHHHHHMSQRIGVIDMGTNTFHLLITDIVNDRPHTLVNEKSAVGLGKGGITKGFITEEAMDRALDTLKKFRVILDEHAVVHVIATGTSAVRSGSNKQVLIDRIKKEVNIDVEVIDGAREAELIFRGVQQAVPMEDHISLAMDIGGGSVEFIIGNKNEILWKQSFEIGGQRLIDRFHVHDPMREDDRVMMHNYFDEVLVPLEKAINTWRPTQLIGCSGTFDTLAEMNIQHHREKIALEKQTSYLLSLPDFNRLRKQLVASTRRERLAIAGMIELRADMVVVAICLIEHVLKLVSTNAITVSTYSLKEGVLYTMLDGVKVGS”, the “soluble on expression in E. coli” value was “not soluble”.

Regarding “MAHHHHHHMLMFCRVPEDTAVRISLDVKKHFVNTERTSITQAELENYIRCSMIAAGFAQEHAQLFSVVTQFHAERIPLVLFLAGPERCGKTTLAHLLAARINCSTVINAEVLRDISASIDDSLPLFAVPETSSPDSTPSMLRGAEVSAVVAAEVDKAVREGRAIIVEGENLSFAGFHRFLEPSFQLSTGAVILGLVMEICGGEAETDASHAYVQALPNLHPVYSTERLTVLAADIGDLAKGVRGIPTVYVARYTTVADNVCLSVFLHDIVVKRIIAELKRRGRVL”, the “soluble on expression in E. coli” value was “not soluble”.

Regarding “MEANSGGGGGAEGGRAVTGGGGGGGGSDVELVSKTLQVEHKLFYFDLKENPRGRYLKISEKTSATRSTIIVPSSGISWFLDLFNYYVNSEEHELFSKELQLDSKVFYFDIGENRRGRFLKVSEASVSRNRSTIIVPAGSSPDEGWAAFRNILAEIHEASGLFVMPNQKPSDGQEHLVDDVGAGFIPGHGSQQPSSSEHNVDRTIDSPGSDRSSIILPLSGLKQFHEVIGHFVEITKDKIEVLILLEDGNFQSSNHLNLATSSRLPDRGVQ”, the “soluble on expression in E. coli” value is reported as “soluble”.

In the case of “MNTDHERWRTEYAGGTAVAYDDKVVLQGDSARLAGLLQDGGGRAHIYFDGASRGNPGPAAIGWVIVTDDGIVAEGSERIGRATNNQAEYEALIEALAAAADYAFDEAVVKGDSQLIVKQVRGEWDTNDPTLREKRVRVRKLLEEFSEWSLDHVPREINDRADDLANEALDGLEHHHHHH”, the “soluble on expression in E. coli” value is given as “soluble”.

“AHHHHHHGSISETIRSGDWKGEKHVPVIEYEREGELVKVKVQVGKEIPHPNTTEHHIRYIELYFLPEGENFVYQVGRVEFTAHGESVNGPNTSDVYTEPIAYFVLKTKKKGKLYALSYCNIHGLWENEVTLE”: the “soluble on expression in E. coli” value is listed as “soluble”.

For “MSLADSTELTTSATLGAQDAMAFGISEDPAFFQILSANLYSNQKLAMVRETLCNSWDAHIEGNKTDIPIHVTIDKDGFLIFRDYGSGIPKDKIQEVYGVYGASTKKANTASTGGFGLGCKSPMAYTDSFTVTSMCDGTKTVYHIAKSSVETNGKPGIIPIVSVPTEESGLEVKIQLQSEDILEIDSYIRAIVLHGEIKCIYCNQYTGPNTVELLPVLGMSFEPGSYNLDHSTWHKYYMGGHSIFIRYGNVMYPALDTPATHEALKLVKQFMQVINCSRIVVQAAPSSLAVAPSRETLSSQKMTEDGIVNLAVALVDKMEADIKARLPNAIEYIGKAIKEYSPHRFEVNSYLPYTNLVPDVIVSRYMSSTLFSKQYAHLCKKWGNMEIDRQLEHPALAHFSGEGHHHHHH”, the “soluble on expression in E. coli” value is recorded as “soluble”.

With “MSLTQAATRPTNDAGQDGGNNSDILVVARQQVLQRGEGLNQDQVLAVLQLPDDRLEELLALAHEVRMRWCGPEVEVEGIISLKTGGCPEDCHFCSQSGLFASPVRSAWLDIPSLVEAAKQTAKSGATEFCIVAAVRGPDERLMAQVAAGIEAIRNEVEINIACSLGMLTAEQVDQLAARGVHRYNHNLETARSFFANVVTTHTWEERWQTLSMVRDAGMEVCCGGILGMGETLQQRAEFAAELAELGPDEVPLNFLNPRPGTPFADLEVMPVGDALKAVAAFRLALPRTMLRFAGGREITLGDLGAKRGILGGINAVIVGNYLTTLGRPAEADLELLDELQMPLKALNASLEGHHHHHH”, the “soluble on expression in E. coli” value is reported as “soluble”.

On to “MLLGMSLEELTTVALRMGMPRFAGKQLAEWIYVRRATDFAEMTNISQANRQKLAEIYDLGRYPWSDVQCSVDGTKKYLFPVGEGRFVESVLIPEGDRATLCISSQVGCKMDCLFCMTGKQGWNGNLSAAEILNQIFSVDEAAELTNLVYMGMGEPLDNTDEVLRSIEALTEPWGMGWSPKRITVSTIGAKGLERFLAESRCHLAVSLHSPFPEERRKLMPGEKAFPIMQTLDRIRAYDFSGQRRVSFEYIVFDGLNDDMRHADELAAILRGIPCRINLIRFHKIPAVSLRSSDTARMEAFRKRMESHGFTCTIRASRGEDIFAACGMLSTSKAESSEEKSS”, for which the “soluble on expression in E. coli” value is listed as “not soluble”.

On to “MKMDRQAQFRAREALIFEVAEQLLLENGEAGMTLDALAAELDLAKGTLYKHFQSKDELYMLLIVRNERMLLEMIQDKQKSFPEHLAFFMLHHLHHPERTVMFHQIEERLSTTGQGIYDLFQELYQVRKQRLRIIINMTEIYLQEIQSTMTVRDYLAAIWSLTHGAAAILNSSFYQRYLGSRDTLRIAYIDQALAIPKHMHEQYV”, for which the “soluble on expression in E. coli” value is “not soluble”.

“MRGSHHHHHHGSLMPGGKEFYNFYPEYVVGLQWMGDNYVFIEGDDLVFNKANGKSAQTTRFSAADLNALMPEGCKFQTTDAFPSFRTLDAGRGLVVLFTQGGLVGFDMLARKVTYLFDTNEETASLDFSPVGDRVAYVRNHNLYIARGGKLGEGMSRAIAVTIDGTETLVYGQAVHQREFGIEKGTFWSPKGSCLAFYRMDQSMVKPTPIVDYHPLEAESKPLYYPMAGTPSHHVTVGIYHLATGKTVYLQTGEPKEKFLTNLSWSPDENILYVAEVNRAQNECKVNAYDAETGRFVRTLFVETDKHYVEPLHPLTFLPGSNNQFIWQSRRDGWNHLYLYDTTGRLIRQVTKGEWEVTNFAGFDPKGTRLYFESTEASPLERHFYCIDIKGGKTKDLTPESGMHRTQLSPDGSAIIDIFQSPTVPRKVTVTNIGKGSHTLLEAKNPDTGYAMPEIRTGTIMAADGQTPLYYKLTMPLHFDPAKKYPVIVYVYGGPHAQLVTKTWRSSVGGWDIYMAQKGYAVFTVDSRGSANRGAAFEQVIHRRLGQTEMADQMCGVDFLKSQSWVDADRIGVHGWAYGGFMTTNLMLTHGDVFKVGVAGGPVIDWNRYEIMYGERYFDAPQENPEGYDAANLLKRAGDLKGRLMLIHGAIDPVVVWQHSLLFLDACVKARTYPDYYVYPSHEHNVMGPDRVHLYETITRYFTDHL”: the “soluble on expression in E. coli” value was “soluble”.

Take “MNNQLVISDYIFPIHQYGKMGTIHSVFERSFNLKVQDQLINVANFHNYLSSFGMFLPDQLFQEIFPYVQQGNKVKITENQLTFYSTVGVKTIQLTPAEVVSLNITHFKLEKDQLRLLRDRLLARNLERRIGLPLDERAKHIFKKMSQKQKVWTLSEWQEVTNYLIGRGKGLTPSGDDILVAYQTILFILADERAAALAATLSAANLSTTDVSKGYIASSAKGYVNSLLYQLLLDLENHRDNRVDENIDRIIQIGHSSGKDMSFGMLLALQSVELDEK”: the “soluble on expression in E. coli” value was “not soluble”.

“SEKKECPEKSSSSEEELPRRDSGSSRNIDASKLIRLQGSRKLLVDNSIRELQYTKTGIFFQAEACVTNDTVYRELPCVSETLCDISHFFQEDDETEAEPLLFRAVPECQLSGGDIPSVSEEQESSEGQDSGDICSEENQIVSSYASKVCFEIEEDYKNRQFLGPEGNVDVELIDKSTNRYSVWFPTAGWYLWSATGLGFLVRDEVTVTIAFGSWSQHLALDLQHHEQWLVGGPLFDVTAEPEEAVAEIHLPHSISLQAGEVDVSWFLVAHFKNEGMVLEHPARVEPFYAVLESPSFSLMGILLRIASGTRLSIPITSNTLIYYHPHPEDIKFHLYLVPSDALLTKAIDDEEDRFHGVRLQTSPPMEPLNFGSSYIVSNSANLKVMPKWISSL”: the “soluble on expression in E. coli” value is on record as “soluble”.

For “MTTPSPQEISTVTLNSLSKEERKKAILALQTKKNEIKLVIDEHQKKLAEFRQSIPDGCCEMFENEKKIRLKHSSTAELLPHLQKVGSSSVDKEKMINNIRQRVEVQVADQETFKSIEERNELLRRENENLKKEVNTVAAELLQEFESYE”, the “soluble on expression in E. coli” value is recorded as “not soluble”.

Turning to “MTDTIKIYHNPRCSKSRDTLNLLKSNGVEPEVVLYLDTPADAATVRELLRMLGMSSARELMRQKEDLYKTLHLADSELSEEALIQALVEHPKLMERPIVVANGQARIGRPPEQVLDILG”, the “soluble on expression in E. coli” value is given as “not soluble”.

Regarding “MSLSPPILVGFSGPLTGVNSDLGVQGRNGAQLAIEHINAGGGINGRQLELLSMDDGPTAESARDADSALLRQGVVAIIGHMTSNQAIAGLPVVEQHGAVMIAPTVSTPLLTGKRDGFFRLMPDNDSWAYATADYALAQGLKTVSVIYETANQAFAGSFVDGFVTQFEAGGGRLLQRIPFTSAQRDTLEAAAIRAVSTNPDTIVLAASARDTAALAQFIDAHDSPRPVLLSSSWAYTREIFLAGGRAVEGIVFTISYLPDDTREGYLAFRKAYTERFGWEPNFAAALAYESAKVLAAALRRTGGRAQGLREALAAGTPVQGISETVTLDQYGDVQRPPYIVTIRNGEFVSIQEGHHHHHH”, the “soluble on expression in E. coli” value is recorded as “soluble”.

In the case of “MPTPRRSGRVIVYTGDGKGKTTAALGLALRAVGRGMNVAVLQFLKSPERTYGEQLALERLGVDVRQLGAGFTWTKTPDIHREALKRAWAVAKEYVYSGRYDMIVLDELNNVLAIDRFPVEDIVSVSEVLELIRTRPPSLHLVITGRAARPELMAAADIVTEMKLIKHDYEQGRTAMKGIEF”, the “soluble on expression in E. coli” value was “soluble”.

“MQNRKFLTHHEINLLLQSVKQKSCSSRDVCMILLAYFHGLRVSELLSLQLSDLELTTEKIYIQRIKNGFSTVHPLQKEEVIAITNWLNERNSLNVKHFNDNPWLFVSRTGKPLSRQRFYNI”: the “soluble on expression in E. coli” value is given as “not soluble”.

On to “TLREGWVVHYSNKDTLRKRHYWRLDCKCITLFQNNTTNRYYKEIPLSEILTVESAQNFSLVPPGTNPHCFEIVTANATYFVGEMPGGTPGGPSGQGAEAARGWETAIRQALM”, for which the “soluble on expression in E. coli” value is reported as “soluble”.

Take “SSTFEDADTEETVTCLQMTIYHPGQQSGIFKSIRFCSKEKFPSIEVVKFGRNSNMCQYTFQDKQVSRIQFVLQPFKQFNSSVLSFEIKNMSKKTSLMVDNQELGYLNKMDLPYKCMLRFGEYQFLLQKEDGESVESFETQFIMSSRPLLQENNWPTQNPIPEDGMYSSYFTHRSSPSEMDENEL”: the “soluble on expression in E. coli” value is “soluble”.

Turning to “MSLKIVSFQDTKQNTGMESAEISEELNKLSKEKSDLQKKVNELQSQVKGYQNAAASSGSMNKQIVNELNTSNMLIGSVDVTGPGIILVITPQNISSSTNNSTGQNNDVITGEDLLYLINELNFSQAEAISINDVRITSMTGIRSSSGGSDIFVGDDRISPYEKITIKAIGDSKLLYSALSYPGVLSSVPSGYKADYDKYGSIKIGKTNKVIKFDYAKPISKEGHHHHHH”, the “soluble on expression in E. coli” value is on record as “soluble”.

“MSLAYDNVMKDKKIRVGLMTDSIPGGFYNEKGEWGGFDYDIATEIAKRMGVDIERVQVNNKTRIAYVQQGRVDISVSNMTHTRERDKSVDFSITYFFDGQKVLAKKGQFKSVKDMVGKKIATMQGTTSEVNVKRALKEAGDPNPDQSVISFQKESECFQALQMGRVAGWSTDASILVGYSAKEPGKFELVGNFLAEEPYGIAMPQDDSALRDAVNAALQDMWKDGTYKTIYNKWYGPGTPFEMPLAGQIEMWPEGHHHHHH”: the “soluble on expression in E. coli” value is given as “soluble”.
